T1: fibrin (Homo sapiens, UniProt P02671+P02675+P02679)
T1 sequence (P02671 36-866 limits assumed): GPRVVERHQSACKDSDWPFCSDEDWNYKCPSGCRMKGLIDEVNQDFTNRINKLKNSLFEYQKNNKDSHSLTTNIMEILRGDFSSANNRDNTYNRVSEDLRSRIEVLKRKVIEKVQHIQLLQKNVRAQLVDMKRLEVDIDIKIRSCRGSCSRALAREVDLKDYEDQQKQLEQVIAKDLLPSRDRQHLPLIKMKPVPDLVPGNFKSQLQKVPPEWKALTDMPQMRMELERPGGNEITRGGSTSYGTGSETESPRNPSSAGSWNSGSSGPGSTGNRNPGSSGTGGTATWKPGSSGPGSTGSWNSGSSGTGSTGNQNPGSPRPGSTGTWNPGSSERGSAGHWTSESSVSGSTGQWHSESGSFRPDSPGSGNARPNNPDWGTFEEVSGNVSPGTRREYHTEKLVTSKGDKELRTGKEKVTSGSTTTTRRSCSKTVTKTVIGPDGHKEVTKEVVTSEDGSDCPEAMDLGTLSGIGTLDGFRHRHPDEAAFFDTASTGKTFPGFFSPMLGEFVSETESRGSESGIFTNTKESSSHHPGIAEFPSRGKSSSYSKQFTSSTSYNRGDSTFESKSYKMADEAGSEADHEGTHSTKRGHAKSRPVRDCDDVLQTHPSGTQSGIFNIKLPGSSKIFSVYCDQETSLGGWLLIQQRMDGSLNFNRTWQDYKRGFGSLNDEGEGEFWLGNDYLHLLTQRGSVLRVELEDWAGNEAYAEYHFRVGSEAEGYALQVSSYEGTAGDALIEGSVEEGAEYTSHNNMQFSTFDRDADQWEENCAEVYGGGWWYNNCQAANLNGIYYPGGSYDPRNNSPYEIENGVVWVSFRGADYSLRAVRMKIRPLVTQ
T1 sequence (P02675 45-491 limits assumed): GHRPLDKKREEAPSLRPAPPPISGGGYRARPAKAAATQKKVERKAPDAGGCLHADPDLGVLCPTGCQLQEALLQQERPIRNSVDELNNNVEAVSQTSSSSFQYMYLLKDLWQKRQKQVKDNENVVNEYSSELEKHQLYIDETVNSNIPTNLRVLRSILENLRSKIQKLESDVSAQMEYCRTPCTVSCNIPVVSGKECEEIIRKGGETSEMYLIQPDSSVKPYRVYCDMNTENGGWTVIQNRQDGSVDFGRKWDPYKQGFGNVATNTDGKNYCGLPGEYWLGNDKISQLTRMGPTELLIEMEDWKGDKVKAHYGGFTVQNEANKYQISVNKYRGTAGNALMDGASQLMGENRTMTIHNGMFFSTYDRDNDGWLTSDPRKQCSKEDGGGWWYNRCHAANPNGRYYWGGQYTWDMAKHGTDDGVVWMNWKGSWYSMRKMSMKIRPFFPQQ
T1 sequence (P02679 27-453): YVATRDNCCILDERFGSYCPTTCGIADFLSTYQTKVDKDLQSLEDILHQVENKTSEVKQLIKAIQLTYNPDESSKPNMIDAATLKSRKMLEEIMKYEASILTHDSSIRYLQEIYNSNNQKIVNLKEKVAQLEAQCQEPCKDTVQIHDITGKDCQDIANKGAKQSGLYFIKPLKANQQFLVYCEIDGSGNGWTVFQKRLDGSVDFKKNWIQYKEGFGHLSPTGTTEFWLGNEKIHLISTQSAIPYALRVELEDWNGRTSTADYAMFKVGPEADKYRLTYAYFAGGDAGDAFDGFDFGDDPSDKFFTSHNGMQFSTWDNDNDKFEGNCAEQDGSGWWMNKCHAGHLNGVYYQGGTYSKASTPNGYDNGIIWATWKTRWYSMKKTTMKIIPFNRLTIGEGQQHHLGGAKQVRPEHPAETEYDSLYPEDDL

T2: fibrin clot polymerization (Homo sapiens, UniProt P02671+P02675+P02679)
T2 sequence (P02671 36-866 limits assumed): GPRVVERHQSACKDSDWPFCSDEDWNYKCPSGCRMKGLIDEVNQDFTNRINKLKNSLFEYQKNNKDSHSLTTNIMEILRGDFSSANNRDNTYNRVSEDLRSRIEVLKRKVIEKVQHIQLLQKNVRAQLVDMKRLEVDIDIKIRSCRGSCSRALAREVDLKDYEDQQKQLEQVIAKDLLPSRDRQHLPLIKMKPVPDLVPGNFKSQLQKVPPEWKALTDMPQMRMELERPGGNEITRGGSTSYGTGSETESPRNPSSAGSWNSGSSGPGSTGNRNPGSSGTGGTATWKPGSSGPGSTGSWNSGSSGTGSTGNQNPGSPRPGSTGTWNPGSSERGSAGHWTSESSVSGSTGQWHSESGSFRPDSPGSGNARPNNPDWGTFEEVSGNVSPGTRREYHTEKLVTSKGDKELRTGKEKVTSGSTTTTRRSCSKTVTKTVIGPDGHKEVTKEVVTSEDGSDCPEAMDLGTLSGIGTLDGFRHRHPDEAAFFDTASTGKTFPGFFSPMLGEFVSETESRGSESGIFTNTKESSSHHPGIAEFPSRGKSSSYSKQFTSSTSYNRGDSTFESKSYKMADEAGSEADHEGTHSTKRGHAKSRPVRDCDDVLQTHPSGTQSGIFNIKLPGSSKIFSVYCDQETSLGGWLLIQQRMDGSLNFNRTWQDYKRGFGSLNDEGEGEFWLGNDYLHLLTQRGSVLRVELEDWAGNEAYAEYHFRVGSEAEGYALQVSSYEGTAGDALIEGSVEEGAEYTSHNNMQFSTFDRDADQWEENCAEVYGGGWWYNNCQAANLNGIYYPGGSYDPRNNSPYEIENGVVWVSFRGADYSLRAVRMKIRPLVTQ
T2 sequence (P02675 45-491 limits assumed): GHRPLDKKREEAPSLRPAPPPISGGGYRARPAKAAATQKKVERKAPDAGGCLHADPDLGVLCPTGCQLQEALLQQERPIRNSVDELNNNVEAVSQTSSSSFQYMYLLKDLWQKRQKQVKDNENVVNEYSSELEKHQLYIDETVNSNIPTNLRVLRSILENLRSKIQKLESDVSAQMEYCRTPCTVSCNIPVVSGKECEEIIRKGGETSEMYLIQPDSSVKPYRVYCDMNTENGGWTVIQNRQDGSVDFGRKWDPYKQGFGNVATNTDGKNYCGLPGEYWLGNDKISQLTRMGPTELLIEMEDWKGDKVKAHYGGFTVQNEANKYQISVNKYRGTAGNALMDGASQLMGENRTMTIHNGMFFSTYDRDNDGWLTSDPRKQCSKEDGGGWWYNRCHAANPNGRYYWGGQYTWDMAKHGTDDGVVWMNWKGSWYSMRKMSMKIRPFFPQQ
T2 sequence (P02679 27-453): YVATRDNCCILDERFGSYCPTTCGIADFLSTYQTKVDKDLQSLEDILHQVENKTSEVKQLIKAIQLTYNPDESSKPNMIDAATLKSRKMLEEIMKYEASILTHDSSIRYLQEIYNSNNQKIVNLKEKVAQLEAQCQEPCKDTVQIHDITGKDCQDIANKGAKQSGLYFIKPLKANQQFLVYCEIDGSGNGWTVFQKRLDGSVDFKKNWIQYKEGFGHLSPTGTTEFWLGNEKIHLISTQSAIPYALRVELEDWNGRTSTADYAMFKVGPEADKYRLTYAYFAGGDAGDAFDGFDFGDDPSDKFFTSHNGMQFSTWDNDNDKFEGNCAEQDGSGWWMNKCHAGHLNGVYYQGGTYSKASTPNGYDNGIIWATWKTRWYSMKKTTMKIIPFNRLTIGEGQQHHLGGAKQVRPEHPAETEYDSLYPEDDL


Key:
fibrin = molecular target: T1, fibrin; experiment: Interferometry (Fortébio Blitz) binding of sdFv-microgels to fibrin layer; settings: several concentrations
Protocol: Ultralow crosslinked (ULC) microgels (microgels) with highly deformable, dendritic architecture were prepared using standard precipitation polymerization techniques previously described, Clemetson, K. J., Thrombosis Research, 129:220-224 (2012). A 95% pNIPAm/5% AAc composition (poly(N-isopropylacrylamide-co-acrylic acid) was utilized for microgel synthesis which results in microscaffolds ˜1-μm diameter in the swollen state. Co-polymerization with acrylic acid was utilized to allow for carboxylic acid chemoligation sites for sdFv attachment, Fries, et al., British Journal of Anesthesia, 105:116-121 (2010); Granville-Chapman, et al., Injury, 42:447-459 (2011). Following synthesis, microgels were purified using ultracentrifugation and conjugated to fibrin specific sdFvs using standard EDC/NHS chemistry. For confocal fluorescence microscopy experiments, sdFvs were also labeled with maleimide-Alexa Fluor-488 following conjugation to the microgels. To determine basic microgels properties, the particles were characterized using dynamic light scattering to determine the hydrodynamic radius and atomic and force microscopy imaging to characterize morphology. Finally, to ensure that microgels coupled to fibrin-specific sdFvs retained fibrin-binding capabilities, binding of sdFv-microgels to fibrin was determined through interferometry analysis utilizing the Fortébio Blitz system. […]

[1] = molecular target: T2, fibrin clot polymerization; experiment: Turbidity assay of fibrin clot polymerization; type: biochemical
Protocol: H6 interference with fibrin clot polymerization was determined through turbidity and clottability assays. The turbidity assay involved polymerizing physiological fibrin clots (2 mg/mL) in wells of a 96-well plate while taking absorbance measurements at 350 nm every 30 seconds. An increase in absorbance correlates to an increase in clot “cloudiness” which, in turn, indicates gelation. Turbidity of standard fibrin clots was compared to that of clots exposed to varying molar concentrations ranging from 1:1 to 1:1000 molar ratios of nanobody to fibrinogen.

| Molecule | binding of sdFv-microgels to the fibrin layer (fibrin) | turbidity versus fibrin controls ([1]; all other molar ratios) | turbidity versus fibrin controls ([1]; molar ratio to fibrinogen 1:1, differences not significant) |
| --- | --- | --- | --- |
| PLPs: ultra-low crosslinked pNIPAm-AAc microgels conjugated to fibrin-specific sdFv H6 (conjugate) VH: QVQLLESGGGLVQPGGSLRLSCAASGDRFTHNDMGWVRQAPGKGLEWVSTIPTTDGSTYYADSVKGRFTISRDNSKSTLYLQMNSLRAEDTAVYYCATGYMWKAPAYVKYWGQGTLVTVSSAAAEQKLISEEDLNSAAHYTDIG | increased binding to the fibrin layer with increasing concentrations |  |  |
| H6: fibrin-specific human sdFv clone from phage biopanning, SEQ ID NO: 1 (protein) VHH: QVQLLESGGGLVQPGGSLRLSCAASGDRFTHNDMGWVRQAPGKGLEWVSTIPTTDGSTYYADSVKGRFTISRDNSKSTLYLQMNSLRAEDTAVYYCATGYMWKAPAYVKYWGQGTLVTVSSAAAEQKLISEEDLNSAAHYTDIG |  | indistinguishable from physiological fibrin controls | notable difference in turbidity readings |
